B1: INTS3 (parent)
chain: AQLQALRQKEVDFCISLLRERFME
B2: TRAF3IP2 (parent)
chain: YGHDYPRAAYQQVIQPALPGQPLP

Variants of: B1
Assay: protein stability index of a GFP-peptide fusion (GPS, HEK-293T) (PSI 1-6); higher = more stable
Details: c terminus: a fixed tail appended
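Note: lentivirally expressed fusions sorted by FACS into six bins by GFP to DsRed ratio, PSI derived from sequencing read proportions per bin multiplied by bin number.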

Protein stability index, by site and new letter:
R21: M 2.09 | A 2.41 | T 3.99 | K 2.5 | W 2.68 | C 2.58 | D 1.14 | E 2.1 | G 2.99 | N 2.7 | F 1.36 | H 2.91 | L 2.34
R19: Q 2.74 | G 1.37 | M 2.43 | S 3.43 | D 1.57 | P 2.21 | Y 2.94 | L 2.02 | N 3.64 | K 1.2 | E 1 | F 1.87
E20: R 2.49 | P 2.08 | C 2.38 | K 2.09 | I 3.04 | G 3.34 | S 5.14 | L 2.34 | D 2.65 | M 2.92
L18: Y 3.92 | T 2.24 | S 1.87 | Q 3.04 | V 3.22 | R 2.2
E24: G 1.92 | T 1.77 | R 3.34 | A 3.89 | P 1.31 | N 2.72 | V 2.95 | Q 1.4 | M 4.47 | I 2.7 | Y 2.66
M23: S 1.42 | Q 1.03 | G 1.9 | H 1.96 | T 1.85 | R 2.91 | L 2.29 | D 1.95 | N 2.55 | V 5.11 | K 2.84 | I 2.46 | A 2.78 | E 1.46 | P 1.79
F22: E 2.16 | A 1.45 | S 1.31 | C 1.19 | D 2.24 | Q 1.98 | H 1.18 | N 1.69 | M 3.62 | G 1.17 | R 2.1 | Y 2.21 | K 1.92 | W 3.21 | T 1.97 | P 1.67

Variants of: B2
Assay: as above
Details: c terminus: a fixed tail appended

Protein stability index: each site, then its substitutions
Y1: E 4.63 | S 3.75 | V 4.01 | N 4.21 | K 3.79 | Q 3.73 | F 2.12 | W 2.68 | R 3.71 | M 3.31 | A 3.77 | G 3.63 | T 3.54 | H 4.03 | L 3.95 | D 4.19 | P 4.1 | I 3.52 | C 2.52
G2: E 3.78 | F 3.36 | Q 2.62 | V 1.83 | A 2.41 | P 3.42 | Y 2.38 | H 2.46 | T 2.27 | I 1.97 | M 2.15 | K 3.69 | R 3.52 | C 1.67 | D 3.43 | S 2.56 | N 2.46 | L 2.6 | W 2.03
Y5: C 3.5 | H 3.73 | G 3.78 | E 3.88 | I 3.43 | D 4.01 | A 4.22 | F 2.52
H3: V 2.4 | W 1.69 | C 1.86 | T 1.73 | Q 2.04 | K 2.5 | R 2.19 | N 1.83 | S 2.2 | I 1.83 | L 1.86 | F 2.08 | A 2.05 | D 2.02 | P 4.18 | Y 1.74 | M 1.77 | E 2.5 | G 4.19
D4: V 2.36 | F 1.56 | M 1.66 | L 1.73 | E 1.81 | H 1.94 | Q 1.85 | C 1.8 | W 2.08 | G 2.05 | A 1.55 | P 3.33 | N 2.42 | S 2.07 | Y 2.9 | K 2.7 | I 2.1 | R 2.21 | T 2.13
